Assay results as given in the supplement of paper PMC7125110.
± gives the standard error. For part of these data: This sample holds only a part of the variants without activity.

B1: glmS ribozyme (parent)
chain: AUAAAAGCGCCAGAACUACAGAAAUGUAGUUGACGAGGAGGAGGUUUAUCGAAUUUUCGGCGGAUGCCUCCAAA

What was measured:
Details in all cases: with glucosamine-6-phosphate
[1] = variants of: B1; experiment: kcat; higher = faster cleavage; RNA array
Procedure, shortened: (§1)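 On sequenced MiSeq chips, barcoded ribozyme variants were made in situ by E. coli RNA polymerase and followed at 37 °C through a hybridised Cy3 probe. Glucosamine-6-phosphate was flowed in at 40 μM to 10 mM in HEPES/KCl/Mg(OAc)2 buffer. Exponential fits to normalised per-tile medians gave kobs, and weighted Michaelis–Menten fits gave kcat and KM.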

[2] = variants of: B1; experiment: KM; higher = weaker cofactor use; RNA array
Procedure, shortened: as §1

[3] = variants of: B1; experiment: self-cleavage kobs at 640 uM GlcN6P; higher = faster cleavage; RNA array
Procedure, shortened: as §1

[4] = variants of: B1; experiment: self-cleavage kobs at 2500 uM GlcN6P; higher = faster cleavage; RNA array
Procedure, shortened: as §1

[5] = variants of: B1; experiment: self-cleavage kobs at 10000 uM GlcN6P; higher = faster cleavage; RNA array
Procedure, shortened: as §1

[6] = variants of: B1; experiment: self-cleavage kobs at 40 uM GlcN6P; higher = faster cleavage; RNA array
Procedure, shortened: as §1

[7] = variants of: B1; experiment: self-cleavage kobs at 160 uM GlcN6P; higher = faster cleavage; RNA array
Procedure, shortened: as §1

Variant: A12C U69A
- kcat [1]: 0.000833 ± 0.00013 s⁻¹
- KM [2]: 4330 ± 1100 µM
- self-cleavage kobs at 640 uM GlcN6P [3]: 0.000117 ± 2.1e-05 s⁻¹
- self-cleavage kobs at 2500 uM GlcN6P [4]: 0.00027 ± 4.6e-05 s⁻¹
- self-cleavage kobs at 10000 uM GlcN6P [5]: 0.000614 ± 9.4e-05 s⁻¹

Variant: G41U A53U
- kcat [1]: 0.00104 ± 0.00026 s⁻¹
- KM [2]: 889 ± 390 µM
- self-cleavage kobs at 40 uM GlcN6P [6]: 9.28e-05 ± 2e-05 s⁻¹
- self-cleavage kobs at 160 uM GlcN6P [7]: 0.000145 ± 2.2e-05 s⁻¹
- self-cleavage kobs at 640 uM GlcN6P [3]: 0.000413 ± 8.1e-05 s⁻¹
- self-cleavage kobs at 2500 uM GlcN6P [4]: 0.000697 ± 0.0001 s⁻¹
- self-cleavage kobs at 10000 uM GlcN6P [5]: 0.00119 ± 0.00021 s⁻¹

Variant: C11U C70G C71U
- kcat [1]: 5.18e-05 ± 1e-05 s⁻¹
- self-cleavage kobs at 640 uM GlcN6P [3]: 7.99e-05 ± 2.7e-05 s⁻¹
- self-cleavage kobs at 10000 uM GlcN6P [5]: 5.18e-05 ± 1.3e-05 s⁻¹

Variant: A14G C71U
- kcat [1]: 0.133 ± 0.062 s⁻¹
- self-cleavage kobs at 40 uM GlcN6P [6]: 0.0019 ± 0.00017 s⁻¹
- self-cleavage kobs at 160 uM GlcN6P [7]: 0.00542 ± 0.00067 s⁻¹
- self-cleavage kobs at 640 uM GlcN6P [3]: 0.0171 ± 0.0027 s⁻¹
- self-cleavage kobs at 2500 uM GlcN6P [4]: 0.0711 ± 0.027 s⁻¹
- self-cleavage kobs at 10000 uM GlcN6P [5]: 0.112 ± 0.022 s⁻¹

Variant: G37A C50A
- kcat [1]: 1.38e-05 ± 4.6e-06 s⁻¹

Variant: C16A A53U
- kcat [1]: 0.00183 ± 0.0008 s⁻¹
- self-cleavage kobs at 640 uM GlcN6P [3]: 0.000241 ± 6.3e-05 s⁻¹
- self-cleavage kobs at 2500 uM GlcN6P [4]: 0.00116 ± 0.00029 s⁻¹
- self-cleavage kobs at 10000 uM GlcN6P [5]: 0.00118 ± 0.00035 s⁻¹

Variant: A6U U45A
- kcat [1]: 0.000657 ± 1.8e-05 s⁻¹
- KM [2]: 2490 ± 130 µM
- self-cleavage kobs at 640 uM GlcN6P [3]: 0.000134 ± 2e-05 s⁻¹
- self-cleavage kobs at 2500 uM GlcN6P [4]: 0.000337 ± 6.4e-05 s⁻¹
- self-cleavage kobs at 10000 uM GlcN6P [5]: 0.000523 ± 7.7e-05 s⁻¹

Variant: C16U C68U
- kcat [1]: 0.0026 ± 0.0006 s⁻¹
- KM [2]: 1440 ± 460 µM
- self-cleavage kobs at 40 uM GlcN6P [6]: 8.07e-05 ± 5.9e-06 s⁻¹
- self-cleavage kobs at 160 uM GlcN6P [7]: 0.000263 ± 2.9e-05 s⁻¹
- self-cleavage kobs at 640 uM GlcN6P [3]: 0.000649 ± 5.6e-05 s⁻¹
- self-cleavage kobs at 2500 uM GlcN6P [4]: 0.00247 ± 0.00034 s⁻¹
- self-cleavage kobs at 10000 uM GlcN6P [5]: 0.00235 ± 0.00021 s⁻¹

Variant: A64U C70U
- kcat [1]: 0.00015 ± 1.9e-05 s⁻¹
- KM [2]: 1510 ± 510 µM
- self-cleavage kobs at 640 uM GlcN6P [3]: 5.13e-05 ± 5.8e-06 s⁻¹
- self-cleavage kobs at 2500 uM GlcN6P [4]: 7.86e-05 ± 8.2e-06 s⁻¹
- self-cleavage kobs at 10000 uM GlcN6P [5]: 0.000139 ± 9.8e-06 s⁻¹

Variant: G37A U65C
- kcat [1]: 0.000108 ± 1.4e-05 s⁻¹
- KM [2]: 2300 ± 1100 µM
- self-cleavage kobs at 2500 uM GlcN6P [4]: 6.65e-05 ± 1.7e-05 s⁻¹
- self-cleavage kobs at 10000 uM GlcN6P [5]: 8.61e-05 ± 1.1e-05 s⁻¹

Variant: C61U G66A
- kcat [1]: < 1e-05 s⁻¹
- self-cleavage kobs at 640 uM GlcN6P [3]: < 1e-05 s⁻¹

Variant: C11U C68U
- kcat [1]: 0.000418 ± 5.2e-05 s⁻¹
- KM [2]: 1070 ± 290 µM
- self-cleavage kobs at 160 uM GlcN6P [7]: 6.59e-05 ± 1.1e-05 s⁻¹
- self-cleavage kobs at 640 uM GlcN6P [3]: 0.000135 ± 1.7e-05 s⁻¹
- self-cleavage kobs at 2500 uM GlcN6P [4]: 0.000329 ± 3.1e-05 s⁻¹
- self-cleavage kobs at 10000 uM GlcN6P [5]: 0.00036 ± 3.9e-05 s⁻¹

Variant: G60C G66A
- kcat [1]: < 1e-05 s⁻¹
- self-cleavage kobs at 640 uM GlcN6P [3]: < 1e-05 s⁻¹

Variant: C50U U69C
- kcat [1]: 2.88e-05 ± 9.3e-06 s⁻¹
- self-cleavage kobs at 160 uM GlcN6P [7]: 4.48e-05 ± 1.5e-05 s⁻¹
- self-cleavage kobs at 2500 uM GlcN6P [4]: 4.75e-05 ± 1.5e-05 s⁻¹

Variant: U30G U54G
- kcat [1]: 0.00551 ± 0.002 s⁻¹
- self-cleavage kobs at 40 uM GlcN6P [6]: 0.000203 ± 4.6e-05 s⁻¹
- self-cleavage kobs at 160 uM GlcN6P [7]: 0.000615 ± 0.0001 s⁻¹
- self-cleavage kobs at 640 uM GlcN6P [3]: 0.00144 ± 0.00032 s⁻¹
- self-cleavage kobs at 2500 uM GlcN6P [4]: 0.00254 ± 0.00053 s⁻¹
- self-cleavage kobs at 10000 uM GlcN6P [5]: 0.00743 ± 0.0011 s⁻¹

Variant: G13A U54C
- kcat [1]: 0.000629 ± 0.00013 s⁻¹
- KM [2]: 2490 ± 920 µM
- self-cleavage kobs at 160 uM GlcN6P [7]: 2.7e-05 ± 1e-05 s⁻¹
- self-cleavage kobs at 640 uM GlcN6P [3]: 0.000134 ± 2.4e-05 s⁻¹
- self-cleavage kobs at 2500 uM GlcN6P [4]: 0.000405 ± 6.2e-05 s⁻¹
- self-cleavage kobs at 10000 uM GlcN6P [5]: 0.000458 ± 7.1e-05 s⁻¹
